From patent publication US11549123B2, “Plant EPSP synthases and methods of use” (PIONEER HI-BRED INTERNATIONAL, INC., priority 2015, dated 2023) come the findings set out here.

The test system of one series is maize EPSPS. As to the kind of experiment: EPSPS reaction rates at 200 uM PEP and S3P, and at 30 uM substrates with 1 mM glyphosate. It is filed as biochemical, Zea mays. The settings on record: Zea ma. The method, then: (§1) EPSPS activity was determined by quantifying the phosphate generated from the EPSPS reaction. Release of inorganic phosphate was coupled to reaction with 2-amino-6-mercapto-7-methylpurine ribonucleoside, catalyzed by purine-nucleoside phosphorylase (M R Webb, Proc. Natl. Acad. Sci. 89:4884-4887, 1992). The absorbance change that occurs was monitored at 360 nm, where the extinction is 11,200 M^−1 cm^−1, with a Spectramax plate reader (Molecular Devices). To determine kinetic parameters, the varied substrate was present at seven concentrations (the eighth being the blank, containing no substrate) ranging from 4 to 400 uM and the unvaried substrate present at saturation. […] Reactions were monitored with a Spectramax plate reader. […] KI was then calculated from the following form of the Michaelis-Menten equation for competitive inhibition: KI=KM[I]/(KM app−KM) KM approximates the dissociation constant of the enzyme-substrate complex while kcat is the rate of conversion of substrate to product when the substrate concentration is saturating. kcat/KM is a widely accepted parameter for catalytic efficiency when substrate concentration is low (˜KM). […] The parameter kcat/KM×KI is used to quantify both catalytic efficiency and insensitivity and thus the overall fitness of the enzyme. […]

Series [1] has as its system Glycine max (93Y21) hairy root. As to the kind of experiment: Hairy root growth from transformed soybean cotyledons with or without 25 uM glyphosate. The settings on record: constructs containing the UBQ10 promoter. The format is cell-based.
Substrate in series [2]: C=C(OP(=O)(O)O)C(=O)O
Nature of the series: EPSPS substrate saturation kinetics, maize variant 103V 107G. The format is biochemical, Zea mays. Particulars: other: PEP varied; pH 7.0. The procedure: as §1

Substrate in series [3]: C=C(OP(=O)(O)O)C(=O)O
As to the kind of experiment: EPSPS substrate saturation kinetics, maize variant 103S 107N. The format is biochemical, Zea mays. Particulars: other: PEP varied; pH 7.0. The method, then:
as §1

Substrate in series [4]: C=C(OP(=O)(O)O)C(=O)O
Nature of the series: EPSPS substrate saturation kinetics, maize variant 103L 107A. The settings on record: other: PEP varied; pH 7.0. It is filed as biochemical, Zea mays. The procedure:
as §1

Substrate in series [5]: C=C(OP(=O)(O)O)C(=O)O
As to the kind of experiment: EPSPS substrate saturation kinetics, maize variant 103L 107T. It is filed as biochemical, Zea mays. The settings on record: other: PEP varied; pH 7.0. The procedure: as §1

Substrate in series [6]: C=C(OP(=O)(O)O)C(=O)O
Nature of the series: EPSPS substrate saturation kinetics, maize variant 103G 107W (EPSPS-TGPW). The format is biochemical. Particulars: other: PEP varied; pH 7.0. The method, then: as §1

B1: 123-C1: maize EPSPS with A2R, A4W, K84R, L98C, G102A, I208L, K243E, E391P, D402G (protein)
chain: MRGWEEIVLQPIKEISGTVKLPGSKSLSNRILLLAALSEGTTVVDNLLNSEDVHYMLGALRTLGLSVEADKAAKRAVVVGCGGRFPVEDAKEEVQLFCGNAATAMRPLTAAVTAAGGNATYVLDGVPRMRERPIGDLVVGLKQLGADVDCFLGTDCPPVRVNGIGGLPGGKVKLSGSISSQYLSALLMAAPLALGDVEIEIIDKLISLPYVEMTLRLMERFGVKAEHSDSWDRFYIKGGQKYESPKNAYVEGDASSASYFLAGAAITGGTVTVEGCGTTSLQGDVKFAEVLEMMGAKVTWTETSVTVTGPPREPFGRKHLKAIDVNMNKMPDVAMTLAVVALFADGPTAIRDVASWRVKETERMVAIRTELTKLGASVEEGPDYCIITPPPKLNVTAIDTYGDHRMAMAFSLAACAEVPVTIRDPGCTRKTFPDYFDVLSTFVKN
modifications: maize clone 123-C1
notes: maize EPSPS with A2R, A4W, K84R, L98C, G102A, I208L, K243E, E391P, D402G
B1: in the series with maize EPSPS (PEP and S3P both at 200 uM, no glyphosate), the “Reaction rate, 200 uM, no glyph” value turned out to be 516. Further, the “Reaction rate, 30 uM, 1 mM glyph” value in the series with maize EPSPS (substrates at 30 uM, glyphosate at 1 mM) is 94.5. Moreover, the “hairy root growth in the presence of 25 uM glyphosate” value in series [1] was “generated hairy roots”.

B2: Zea mays EPSPS variant V-G at positions 103-107 (Zea mays; P106G/T102V) (protein)
chain: MAGAEEIVLQPIKEISGTVKLPGSKSLSNRILLLAALSEGTTVVDNLLNSEDVHYMLGALRTLGLSVEADKAAKRAVVVGCGGKFPVEDAKEEVQLFLGNAGVAMRGLTAAVTAAGGNATYVLDGVPRMRERPIGDLVVGLKQLGADVDCFLGTDCPPVRVNGIGGLPGGKVKLSGSISSQYLSALLMAAPLALGDVEIEIIDKLISIPYVEMTLRLMERFGVKAEHSDSWDRFYIKGGQKYKSPKNAYVEGDASSASYFLAGAAITGGTVTVEGCGTTSLQGDVKFAEVLEMMGAKVTWTETSVTVTGPPREPFGRKHLKAIDVNMNKMPDVAMTLAVVALFADGPTAIRDVASWRVKETERMVAIRTELTKLGASVEEGPDYCIITPPEKLNVTAIDTYDDHRMAMAFSLAACAEVPVTIRDPGCTRKTFPDYFDVLSTFVKN
For orientation: Km means the concentration of substrate that gives half-maximal velocity. Regarding B2, the Km in series [2] was 133 µM.

B3: Zea mays EPSPS variant S-N at positions 103-107 (Zea mays; P106N/T102S) (protein)
chain: MAGAEEIVLQPIKEISGTVKLPGSKSLSNRILLLAALSEGTTVVDNLLNSEDVHYMLGALRTLGLSVEADKAAKRAVVVGCGGKFPVEDAKEEVQLFLGNAGSAMRNLTAAVTAAGGNATYVLDGVPRMRERPIGDLVVGLKQLGADVDCFLGTDCPPVRVNGIGGLPGGKVKLSGSISSQYLSALLMAAPLALGDVEIEIIDKLISIPYVEMTLRLMERFGVKAEHSDSWDRFYIKGGQKYKSPKNAYVEGDASSASYFLAGAAITGGTVTVEGCGTTSLQGDVKFAEVLEMMGAKVTWTETSVTVTGPPREPFGRKHLKAIDVNMNKMPDVAMTLAVVALFADGPTAIRDVASWRVKETERMVAIRTELTKLGASVEEGPDYCIITPPEKLNVTAIDTYDDHRMAMAFSLAACAEVPVTIRDPGCTRKTFPDYFDVLSTFVKN
As to B3, in series [3], the Km was 38.1 µM.

B4: Zea mays EPSPS variant L-A at positions 103-107 (Zea mays; P106A/T102L) (protein)
chain: MAGAEEIVLQPIKEISGTVKLPGSKSLSNRILLLAALSEGTTVVDNLLNSEDVHYMLGALRTLGLSVEADKAAKRAVVVGCGGKFPVEDAKEEVQLFLGNAGLAMRALTAAVTAAGGNATYVLDGVPRMRERPIGDLVVGLKQLGADVDCFLGTDCPPVRVNGIGGLPGGKVKLSGSISSQYLSALLMAAPLALGDVEIEIIDKLISIPYVEMTLRLMERFGVKAEHSDSWDRFYIKGGQKYKSPKNAYVEGDASSASYFLAGAAITGGTVTVEGCGTTSLQGDVKFAEVLEMMGAKVTWTETSVTVTGPPREPFGRKHLKAIDVNMNKMPDVAMTLAVVALFADGPTAIRDVASWRVKETERMVAIRTELTKLGASVEEGPDYCIITPPEKLNVTAIDTYDDHRMAMAFSLAACAEVPVTIRDPGCTRKTFPDYFDVLSTFVKN
B4: the Michaelis-Menten constant (Km) in series [4] came to 50.6 µM.

B5: Zea mays EPSPS variant L-T at positions 103-107 (Zea mays; P106T/T102L) (protein)
chain: MAGAEEIVLQPIKEISGTVKLPGSKSLSNRILLLAALSEGTTVVDNLLNSEDVHYMLGALRTLGLSVEADKAAKRAVVVGCGGKFPVEDAKEEVQLFLGNAGLAMRTLTAAVTAAGGNATYVLDGVPRMRERPIGDLVVGLKQLGADVDCFLGTDCPPVRVNGIGGLPGGKVKLSGSISSQYLSALLMAAPLALGDVEIEIIDKLISIPYVEMTLRLMERFGVKAEHSDSWDRFYIKGGQKYKSPKNAYVEGDASSASYFLAGAAITGGTVTVEGCGTTSLQGDVKFAEVLEMMGAKVTWTETSVTVTGPPREPFGRKHLKAIDVNMNKMPDVAMTLAVVALFADGPTAIRDVASWRVKETERMVAIRTELTKLGASVEEGPDYCIITPPEKLNVTAIDTYDDHRMAMAFSLAACAEVPVTIRDPGCTRKTFPDYFDVLSTFVKN
B5: the Km in series [5] turned out to be 45.8 µM.

B6: Zea mays EPSPS variant G-W at positions 103-107 (EPSPS-TGPW; T103G P107W) (Zea mays; P106W/T102G) (protein)
chain: MAGAEEIVLQPIKEISGTVKLPGSKSLSNRILLLAALSEGTTVVDNLLNSEDVHYMLGALRTLGLSVEADKAAKRAVVVGCGGKFPVEDAKEEVQLFLGNAGGAMRWLTAAVTAAGGNATYVLDGVPRMRERPIGDLVVGLKQLGADVDCFLGTDCPPVRVNGIGGLPGGKVKLSGSISSQYLSALLMAAPLALGDVEIEIIDKLISIPYVEMTLRLMERFGVKAEHSDSWDRFYIKGGQKYKSPKNAYVEGDASSASYFLAGAAITGGTVTVEGCGTTSLQGDVKFAEVLEMMGAKVTWTETSVTVTGPPREPFGRKHLKAIDVNMNKMPDVAMTLAVVALFADGPTAIRDVASWRVKETERMVAIRTELTKLGASVEEGPDYCIITPPEKLNVTAIDTYDDHRMAMAFSLAACAEVPVTIRDPGCTRKTFPDYFDVLSTFVKN
For B6, the Km in series [6] was 82.2 µM.
